Measured values reported in patent publication US20210024651A1.

Key:
[1] = molecular target: moFcgRIV; experiment: BLI
[2] = molecular target: moFcRn; experiment: BLI
[3] = molecular target: moFcgRIIb; experiment: -; reported
[4] = molecular target: moFcgRIII; experiment: -; reported
[5] = molecular target: moFcgRIV; experiment: -; reported
[6] = molecular target: moFcRn; experiment: -; reported

| Kd [1] [nM] | Kd [2] [nM] | Kd [3] [nM] | Kd [4] [nM] | Kd [5] [nM] | Kd [6] [nM] | Substance |
| --- | --- | --- | --- | --- | --- | --- |
| 701 | 12.8 |  |  |  |  | LJM716 hIgG1 |
|  | 6.69 |  |  |  |  | Seribantumab hIgG2 |
|  |  | 1100 | 9300 | 280 | 72 | hIgG1 |
|  |  | 7900 | 9700 |  | 63 | hIgG2 |
|  |  | 700 | 1300 | 170 | 230 | hIgG3 |
|  |  | 11000 | 21000 | 26000 | 116 | hIgG4 |
|  |  | 301 | 3200 |  | 1160 | mIgG1 |
|  |  | 2390 | 1460 | 34.5 | 490 | mIgG2a |
|  |  | 448 | 1560 | 59 | 545 | mIgG2b |
|  |  |  |  |  | 140 | mIgG3 |
